The values that follow come from patent US20160022764A1 (RHYTHM PHARMACEUTICALS, published 2016).

Assay in all cases: cell-based or functional assay
Experiment [1] addresses melanocortin-1 receptor (human, UniProt Q01726 1-317).
Experiment [2] addresses melanocortin-3 receptor (human, UniProt P41968 1-323).
Experiment [3] deals with melanocortin-4 receptor (human, UniProt P32245 1-332).
Experiment [4] has as its target melanocortin-5 receptor (human, UniProt P33032 1-325).

Bridge positions count the residues as written; N and C are the ends. Square brackets hold non-standard residues; d marks the D form. dPhe(4-F) = N[C@H](Cc1ccc(F)cc1)C(=O)O

Sequence of melanocortin-1 receptor (Q01726 whole entry): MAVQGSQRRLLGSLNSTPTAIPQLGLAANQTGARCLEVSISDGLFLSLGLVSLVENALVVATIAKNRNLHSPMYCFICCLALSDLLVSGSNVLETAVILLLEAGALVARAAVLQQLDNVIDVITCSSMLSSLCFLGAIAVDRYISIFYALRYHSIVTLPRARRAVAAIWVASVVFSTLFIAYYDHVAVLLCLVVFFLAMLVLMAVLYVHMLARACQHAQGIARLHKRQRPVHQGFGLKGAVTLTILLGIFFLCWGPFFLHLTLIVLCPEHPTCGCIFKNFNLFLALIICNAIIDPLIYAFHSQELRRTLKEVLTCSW
Sequence of melanocortin-3 receptor (P41968 whole entry): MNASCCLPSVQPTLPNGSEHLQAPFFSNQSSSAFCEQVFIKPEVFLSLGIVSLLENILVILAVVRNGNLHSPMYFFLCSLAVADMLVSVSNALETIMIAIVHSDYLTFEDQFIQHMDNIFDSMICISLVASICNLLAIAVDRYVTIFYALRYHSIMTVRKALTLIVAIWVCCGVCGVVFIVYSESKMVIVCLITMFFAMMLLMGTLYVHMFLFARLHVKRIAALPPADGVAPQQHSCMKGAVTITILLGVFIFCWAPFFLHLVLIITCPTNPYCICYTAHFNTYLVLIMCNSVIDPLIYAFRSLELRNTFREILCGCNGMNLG
Sequence of melanocortin-5 receptor (P33032 whole entry): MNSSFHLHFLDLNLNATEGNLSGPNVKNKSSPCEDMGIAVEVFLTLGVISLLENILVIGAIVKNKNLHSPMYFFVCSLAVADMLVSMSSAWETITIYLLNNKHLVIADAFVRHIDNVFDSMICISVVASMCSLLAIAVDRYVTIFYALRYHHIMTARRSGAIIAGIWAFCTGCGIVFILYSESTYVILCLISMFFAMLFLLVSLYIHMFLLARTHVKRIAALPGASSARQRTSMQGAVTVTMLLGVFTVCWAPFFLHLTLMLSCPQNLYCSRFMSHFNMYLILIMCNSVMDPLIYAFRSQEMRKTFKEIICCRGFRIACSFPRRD
Sequence of melanocortin-4 receptor (P32245 whole entry): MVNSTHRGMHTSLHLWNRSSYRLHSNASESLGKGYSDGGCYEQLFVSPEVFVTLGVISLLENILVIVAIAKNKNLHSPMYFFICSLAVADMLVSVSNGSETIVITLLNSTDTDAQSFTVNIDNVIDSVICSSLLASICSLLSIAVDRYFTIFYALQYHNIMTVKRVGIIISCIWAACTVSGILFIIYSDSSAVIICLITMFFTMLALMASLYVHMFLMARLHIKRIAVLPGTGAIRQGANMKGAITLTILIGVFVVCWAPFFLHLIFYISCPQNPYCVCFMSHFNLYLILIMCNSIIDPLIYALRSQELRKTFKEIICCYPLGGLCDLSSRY

B1: Compound 14: Ac-Arg-cyclo[Cys-D-Ala-Pro-D-Phe(p-F)-Arg-Trp-Cys]-NH2 (peptide)
peptide: Ac-RC[dA]P[dPhe(4-F)]RWC-NH2
modifications: disulfide 2-8
SMILES: CC(=O)N[C@@H](CCCNC(=N)N)C(=O)N[C@H]1CSSC[C@@H](C(N)=O)NC(=O)[C@H](Cc2c[nH]c3ccccc23)NC(=O)[C@H](CCCNC(=N)N)NC(=O)[C@@H](Cc2ccc(F)cc2)NC(=O)[C@@H]2CCCN2C(=O)[C@@H](C)NC1=O
As to B1, in experiment [1], the “Ratios of EC50 values: MC1/4” value came to 7 and the “cAMP Assay (EC-50)” value turned out to be 169 nM. In addition, in experiment [2], the “Ratios of EC50 values: MC3/4” value is above 400 and the “cAMP Assay (EC-50)” value was above 10 µM. Also, in experiment [3], the “cAMP Assay (EC-50)” value was 24 nM. In experiment [4], the “Ratios of EC50 values: MC5/4” value amounted to 12 and the “cAMP Assay (EC-50)” value worked out at 283 nM.
